T1: recombinant murine cold-inducible RNA-binding protein, His-tagged (rmCIRP-his) (mouse), P60824
T1 chain: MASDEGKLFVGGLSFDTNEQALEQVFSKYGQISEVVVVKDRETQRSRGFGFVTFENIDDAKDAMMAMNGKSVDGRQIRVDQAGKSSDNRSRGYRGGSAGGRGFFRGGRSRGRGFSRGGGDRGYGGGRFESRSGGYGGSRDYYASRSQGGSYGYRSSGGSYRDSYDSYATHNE

T2: recombinant mouse TREM-1-Fc Chimera (mouse, UniProt Q9JKE2 21-202)
T2 sequence (looked up): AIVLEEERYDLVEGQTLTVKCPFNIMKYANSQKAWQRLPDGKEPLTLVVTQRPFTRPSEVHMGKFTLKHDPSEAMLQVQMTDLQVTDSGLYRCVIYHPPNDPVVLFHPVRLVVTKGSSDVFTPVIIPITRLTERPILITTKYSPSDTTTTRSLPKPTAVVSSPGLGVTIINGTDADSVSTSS

T3: triggering receptor expressed on myeloid cells-1 (TREM-1) on RAW264.7 macrophages (mouse (endogenous in RAW264.7), UniProt Q9JKE2 21-230)
T3 sequence (looked up): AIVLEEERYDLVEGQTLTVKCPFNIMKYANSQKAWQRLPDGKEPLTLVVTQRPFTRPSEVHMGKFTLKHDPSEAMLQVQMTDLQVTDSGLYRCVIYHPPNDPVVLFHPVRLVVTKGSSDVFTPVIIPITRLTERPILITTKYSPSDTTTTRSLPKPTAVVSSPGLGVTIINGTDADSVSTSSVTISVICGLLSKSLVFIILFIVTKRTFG

B1: recombinant mouse TREM-1-Fc Chimera, Q9JKE2 21-202 (Fc fusion)
chain: T2 sequence (looked up)
B2: M3, 7-aa peptide derived from CIRP (peptide)
peptide: RGFFRGG
B3: recombinant murine cold-inducible RNA-binding protein, His-tagged (rmCIRP-his) (natural protein, mouse, UniProt P60824 1-172, looked up)
chain: T1 chain
B4: LP17, 17 amino acid peptide taken from TREM-1 (peptide)
peptide: LQVTDSGLYRCVIYHPP

Columns and labels:
[1] = target: T1, recombinant murine cold-inducible …; assay: SPR; settings: remark: other sources report otherwise
[2] = target: T2, recombinant mouse TREM-1-Fc Chimera; assay: SPR
[3] = target: T3, triggering receptor expressed on …; assay: FRET or BRET
[4] = target: B3; assay: SPR

Binder: B1
- Kd [1]: 0.117 µM

Binder: B2
- Kd [2]: 35.2 µM

Binder: B3
- fold increase in FRET units over the negative control CD11b [3]: ~7 fold

Binder: B4
- Kd [4]: 48 µM
